# Source: patent US20170247440A1 (Hoffmann-La Roche, published 2017)
# Where two headings read alike, the source gives them in different places.
# T1: human ANG2-RBD-mouse Fc-region fusion (human, UniProt O15123 275-496, limits assumed)
# T1 sequence (looked up): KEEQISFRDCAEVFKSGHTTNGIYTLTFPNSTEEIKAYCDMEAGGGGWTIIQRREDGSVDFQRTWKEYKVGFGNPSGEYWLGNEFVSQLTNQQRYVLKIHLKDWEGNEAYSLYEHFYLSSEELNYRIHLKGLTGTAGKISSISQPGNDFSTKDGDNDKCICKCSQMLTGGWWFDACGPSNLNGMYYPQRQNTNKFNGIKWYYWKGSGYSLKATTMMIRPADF
# B1: antibody 0117 (bispecific anti-VEGF/PDGF-B CrossMab antibody) (bispecific antibody, human IgG1, kappa, L234A L235A)
# chain 1: DIQLTQSPSSLSASVGDRVTITCSASQDISNYLNWYQQKPGKAPKVLIYFTSSLHSGVPSRFSGSGSGTDFTLTISSLQPEDFATYYCQQYSTVPWTFGQGTKVEIKSSASTKGPSVFPLAPSSKSTSGGTAALGCLVKDYFPEPVTVSWNSGALTSGVHTFPAVLQSSGLYSLSSVVTVPSSSLGTQTYICNVNHKPSNTKVDKKVEPKSCDKTHTCPPCPAPEAAGGPSVFLFPPKPKDTLMASRTPEVTCVVVDVSHEDPEVKFNWYVDGVEVHNAKTKPREEQYNSTYRVVSVLTVLAQDWLNGKEYKCKVSNKALGAPIEKTISKAKGQPREPQVYTLPPCRDELTKNQVSLWCLVKGFYPSDIAVEWESNGQPENNYKTTPPVLDSDGSFFLYSKLTVDKSRWQQGNVFSCSVMHEALHNAYTQKSLSLSPGK
# chain 2: not shown
# chain 3: EVQLVESGGGLVQPGGSLRLSCAASGYDFTHYGMNWVRQAPGKGLEWVGWINTYTGEPTYAADFKRRFTFSLDTSKSTAYLQMNSLRAEDTAVYYCAKYPYYYGTSHWYFDVWGQGTLVTVSSASVAAPSVFIFPPSDEQLKSGTASVVCLLNNFYPREAKVQWKVDNALQSGNSQESVTEQDSKDSTYSLSSTLTLSKADYEKHKVYACEVTHQGLSSPVTKSFNRGEC
# chain 4: not shown
# notes: also called anti-PDGFB/VEGF antibody
# B2: antibody 0144 (bispecific anti-ANG2/PDGF-B CrossMab antibody) (bispecific antibody, human IgG1, kappa, L234A L235A)
# heavy 1: SYVLTQPPSVSVAPGQTARITCGGNNIGSKSVHWYQQKPGQAPVLVVYDTSDRPSGIPERFSGSNSGNTATLTISRVEAGDEADYYCQVWDSSSDHWVFGGGTKLTVLSSASTKGPSVFPLAPSSKSTSGGTAALGCLVKDYFPEPVTVSWNSGALTSGVHTFPAVLQSSGLYSLSSVVTVPSSSLGTQTYICNVNHKPSNTKVDKKVEPKSCDKTHTCPPCPAPEAAGGPSVFLFPPKPKDTLMASRTPEVTCVVVDVSHEDPEVKFNWYVDGVEVHNAKTKPREEQYNSTYRVVSVLTVLAQDWLNGKEYKCKVSNKALGAPIEKTISKAKGQPREPQVYTLPPCRDELTKNQVSLWCLVKGFYPSDIAVEWESNGQPENNYKTTPPVLDSDGSFFLYSKLTVDKSRWQQGNVFSCSVMHEALHNAYTQKSLSLSPGK
# heavy 2: not shown
# light 1: not shown
# light 2: not shown
# B3: mumAb (murine anti-human PDGF-B antibody) (antibody, V domains shown)
# VH: QVQLQQSGAELMKPGASVKISCKATGYTFSSYWIEWVKQRPGHGLEWIGEILPGSGSTNYNEKFKVKATFTADTSSNTAYMQLSSLTSEDSAVYYCAQTTQDFDSWGQGTTLTVSS
# VL: DIVLTQSPGSLAVSLGQRATISCRASESVDIYGYSFMHWYQQKPGQPPKLLIYRASNLESGIPARFSGSGSRTDFTLTINPVEADDVATYYCQQSNEDPRTFGGGTKLEIK
# B4: antibody 0086 (antibody, V domains shown)
# VH: EVQLVESGGGLVQPGGSLRLSCAASGFTFSSYWMSWVRQAPEKGLEWVSTISDGGGLTYYADSVKGRFTISRDNAKNSLYLQMNSLRAEDTAVYYCAESGGYTDWLFGYWGQGTLVTVSS
# VL: not shown
# B5: antibody 0085 (antibody, V domains shown)
# VH: B4 VH
# VL: not shown
# Assays:
# human PDGF-BB [1] = target: T2, human PDGF-BB (human, UniProt P01127 82-190); assay: cell-based or functional assay
# human PDGF-BB [2] = target: T2, human PDGF-BB; assay: cell-based or functional assay; remark: listed apart in the source
# human PDGF-BB [3] = target: T2, human PDGF-BB; assay: SPR, on immobilized human PDGF-BB (Example 32); set-up: t½: unit not given here
# [4] = target: T1, human ANG2-RBD-mouse Fc-region fusion; assay: cell-based or functional assay
# human PDGF-BB [5] = target: T2, human PDGF-BB; assay: cell-based or functional assay; remark: listed apart in the source
# human PDGF-BB [6] = target: T2, human PDGF-BB; assay: cell-based or functional assay; remark: listed apart in the source
# T2 sequence (P01127 82-190 limits assumed): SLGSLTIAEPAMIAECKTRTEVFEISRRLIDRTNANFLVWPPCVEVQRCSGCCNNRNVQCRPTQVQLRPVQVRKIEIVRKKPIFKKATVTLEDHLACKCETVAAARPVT
Binder,Balb-C3T3 Proliferation % neutralization (human PDGF-BB [6]) [%],Balb-C3T3 Proliferation IC50 (human PDGF-BB [6]) [nM],Pericytes Migration % neutralization (human PDGF-BB [6]) [%],Pericytes Migration IC50 (human PDGF-BB [6]) [nM],Pericytes Proliferation % neutralization (human PDGF-BB [6]) [%],Pericytes Proliferation IC50 (human PDGF-BB [6]) [nM],further results
B1,,,,,,,IC50 Proliferation 3T3 (human PDGF-BB [1]): 0.019 nM; IC50 Proliferation human pericytes (human PDGF-BB [1]): 0.016 nM; IC50 Migration-Inhibition human pericytes (human PDGF-BB [2]): 0.06 nM; IC50 Phospho-Inhibition human pericytes (human PDGF-BB [2]): 0.055 nM; Kd (human PDGF-BB [3]): 3 nM; koff (human PDGF-BB [3]): 0.000245 s⁻¹; kon (human PDGF-BB [3]): 76700 M⁻¹ s⁻¹; t½ (human PDGF-BB [3]): 47
B2,,,,,,,ANG2 specific pTie2-ELISA [4]: 6 fold
B3,,,,,,,Balb-C3T3 Proliferation IC50 (human PDGF-BB [5]): 0.179 nM; Pericytes Migration IC50 (human PDGF-BB [5]): 0.08 nM; Pericytes Proliferation IC50 (human PDGF-BB [5]): 0.21 nM
B4,100,0.11,100,0.09,100,0.09,
B5,100,0.06,90,0.15,100,0.11,
